Patent US20110070185A1 (Janssen / Centocor, published 2011)

B1: P13-10 (peptide)
peptide: TLVDLP
notes: synthetic truncated peptide; also called TLVDLP
B2: P14-10 (peptide)
peptide: TLIDLP
notes: synthetic truncated peptide; also called TLIDLP
B3: P3-8 (peptide)
peptide: LVLNLLE
notes: synthetic truncated peptide; also called LVLNLLE
B4: P13-5 (peptide)
peptide: PGMTKV
notes: synthetic truncated peptide; also called PGMTKV
B5: P2 (peptide)
peptide: LLPGRTVLV
notes: synthetic peptide; also called peptide 2
B6: P13-4 (peptide)
peptide: LPGMTKV
notes: synthetic truncated peptide; also called LPGMTKV
B7: P3-5 (peptide)
peptide: SLVLNLL
notes: synthetic truncated peptide; also called SLVLNLL
B8: P19 (peptide)
peptide: NLKAALENLGAL
notes: synthetic peptide; also called peptide 19; NLKAALENLGAL
B9: P13-14 (peptide)
peptide: VDLPGMT
notes: synthetic truncated peptide; also called VDLPGMT
B10: P3-2 (peptide)
peptide: VLNLLEL
notes: synthetic truncated peptide; also called VLNLLEL
B11: P18 (peptide)
peptide: LKNKLKDLGH
notes: synthetic peptide; also called peptide 18
B12: P3-3 (peptide)
peptide: LNLLEL
notes: synthetic truncated peptide; also called LNLLEL
B13: P3-6 (peptide)
peptide: SLVLNL
notes: synthetic truncated peptide; also called SLVLNL
B14: P13-15 (peptide)
peptide: DLPGMTK
notes: synthetic truncated peptide; also called DLPGMTK
B15: P13-9 (peptide)
peptide: TLVDLPG
notes: synthetic truncated peptide; also called TLVDLPG
B16: P14-9 (peptide)
peptide: TLIDLPG
notes: synthetic truncated peptide; also called TLIDLPG
B17: P4 (peptide)
peptide: RSLFLLYAL
notes: synthetic peptide; also called peptide 4; RSLFLLYAL
B18: P3-7 (peptide)
peptide: SLVLNLL
notes: as for B7
B19: P14-5 (peptide)
peptide: PGITRV
notes: synthetic truncated peptide; also called PGITRV
B20: P14-4 (peptide)
peptide: LPGITRV
notes: synthetic truncated peptide; also called LPGITRV
B21: P24 (peptide)
peptide: LKIHAREIFD
notes: synthetic peptide; also called peptide 24
B22: P14-17 (peptide)
peptide: DLPGITR
notes: synthetic truncated peptide; also called DLPGITR

Assays:
[1] = target: T1, HLA-A2 molecules in T2 cells (human); assay: HLA-A2 stabilization assay on T2 cells
T1 construct: whole, on cells; Target of the HLA-A2 Stabilization Assay; also called MHC class I, HLA-A2; MHC/HLA-A2

[2] = target: T1, HLA-A2 molecules in T2 cells; assay: HLA-A2 stabilization assay on T2 cells, flow cytometry with FITC anti-HLA-A2
[3] = target: T1, HLA-A2 molecules in T2 cells; assay: HLA-A2 stabilization assay on T2 cells; remark: listed apart in the source

Row | Binder | binding result [1] | further results
1 | LVDLPGMT (synthetic truncated peptide) [P13-11] | no binding | –
2 | B1 | no binding | –
3 | B2 | no binding | –
4 | TLIDLPGI (synthetic truncated peptide) [P14-8] | no binding | –
5 | B3 | no binding | –
6 | TLIDLPGITR (synthetic truncated peptide) [P14-6] | no binding | –
7 | B4 | no binding | –
8 | B5 | – | binding result [2]: no binding (tested: up to 200 uM)
9 | B6 | no binding | –
10 | B7 | no binding | –
11 | LIDLPGITRV (synthetic truncated peptide) [P14-1] | no binding | –
12 | FMLQTYGQQL (synthetic computer predicted peptide) [P14-18] | – | binding result [3]: no binding
13 | IDLPGITRV (synthetic truncated peptide) [P14-2] | no binding | –
14 | B8 | – | binding result [2]: no binding (tested: up to 200 uM)
15 | B9 | no binding | –
16 | LVLNLLEL (synthetic truncated peptide) [P3-1] | no binding | –
17 | TLIDLPGIT (synthetic truncated peptide) [P14-11] | no binding | –
18 | TLVDLPGMT (synthetic truncated peptide) [P13-7] | no binding | –
19 | DLPGITRV (synthetic truncated peptide) [P14-3] | no binding | –
20 | LIDLPGITR (synthetic truncated peptide) [P14-12] | no binding | –
21 | B10 | no binding | –

Row | Binder | binding result [1] | further results
22 | B11 | – | binding result [2]: no binding (tested: up to 200 uM)
23 | B12 | no binding | –
24 | TLVDLPGM (synthetic truncated peptide) [P13-8] | no binding | –
25 | B13 | no binding | –
26 | VDLPGMTK (synthetic truncated peptide) [P13-12] | no binding | –
27 | B14 | no binding | –
28 | DLPGMTKV (synthetic truncated peptide) [P13-3] | no binding | –
29 | TLIDLPGIT (synthetic truncated peptide) [P14-7] | no binding | –
30 | B15 | no binding | –
31 | B16 | no binding | –
32 | B17 | – | binding result [2]: no binding (tested: up to 200 uM)
33 | LIDLPGIT (synthetic truncated peptide) [P14-13] | no binding | –
34 | B18 | no binding | –
35 | B19 | no binding | –
36 | VDLPGMTKV (synthetic truncated peptide) [P13-2] | no binding | –
37 | TLVDLPGMTK (synthetic truncated peptide) [P13-6] | no binding | –
38 | SLVLNLLE (synthetic truncated peptide) [P3-4] | no binding | –
39 | B20 | no binding | –
40 | LVDLPGMTKV (synthetic truncated peptide) [P13-1] | no binding | –
41 | B21 | – | binding result [2]: no binding (tested: up to 200 uM)
42 | B22 | no binding | –
